Consider one molecule from US20250136717A1 (BYONDIS B V, published 2025).

The target of experiment [1] is T1, Human Coagulation Factor III/Tissue Factor Protein, His Tag, Cat. No. TF3-H52H5 (human, UniProt P13726 33-251).
T1 construct: immobilized on Ni-NTA biosensor tips
Briefly: BLI, TF on Ni-NTA tips. A general note: BLI is a label-free optical method that tracks binding on a fibre tip over time.
Excerpt: (§1) To correct for differences in concentration between the analyte stocks, Protein A binding was estimated for the same samples.

Experiment [2] concerns the target T2, Protein A (Protein A sensor tips, Forte Bio, 18-5012) (UniProt P38507 37-327).
T2 construct: used to correct for the concentration of the antibody samples
Nature of the experiment: BLI, Protein A tips.
Excerpt: as §1

Experiment [3] concerns the target T1, Human Coagulation Factor III/Tissue …. Briefly: BLI, TF signal over Protein A signal.
Excerpt: as §1

T1 sequence (P13726 33-251 limits assumed): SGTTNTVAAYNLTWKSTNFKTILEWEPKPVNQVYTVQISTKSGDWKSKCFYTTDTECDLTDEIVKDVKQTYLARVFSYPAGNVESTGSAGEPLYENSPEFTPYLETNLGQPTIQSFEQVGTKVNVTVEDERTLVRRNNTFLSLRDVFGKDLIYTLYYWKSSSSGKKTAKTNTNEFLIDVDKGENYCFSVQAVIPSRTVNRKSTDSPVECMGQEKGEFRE

B1: S312 (antibody)
heavy: not shown
light: DIQMTQSPPSLSASAGDRVTITCRASQGISSRLAWYQQKPEKAPKSLIYAASSLQSGVPSRFSGSGSGTDFTLTISSLQPEDFATYYCQQYNSYPYTFGQGTKLEIKRTVAAPSVFIFPPSDEQLKSGTASVVCLLNNFYPREAKVQWKVDNALQSGNSQESVTEQDSKDSTYSLSSTLTLSKADYEKHKVYACEVTHQGLSSPVTKSFNRGEC
notes: also called Anti-TF tisotumab (TF-011) (naked); parent antibody tisotumab
For B1, in experiment [1], the “TF binding after 10 s of association” value turned out to be 1.12 nm. Further, in experiment [2], the “Protein A binding after 10 s of association” value stood at 1.75 nm. In addition, the “TF/Protein A * 1000” value in experiment [3] came to 641.
